From article PMC3936483 (The Biochemical journal, 2008)
Positions count from the first letter of the chain named. Names may count otherwise. “And” between values parts separate entries of the source, which are not always exact repeats. Identical values can stand only once.

B1: CTRP3ΔCys (C39A/C42A/C43A), C-terminal FLAG-tagged (natural protein, UniProt Q9ES30 23-246, looked up)
chain: QDEYMESPQAGGLPPDASKAAHGDYGFRGYQGPPGPPGPPGIPGNHGNNGNNGATGHEGAKGEKGDKGDLGPRGERGQHGPKGEKGYPGVPPELQIAFMASLATHFSNQNSGIIFSSVETNIGNFFDVMTGRFGAPVSGVYFFTFSMMKHEDVEEVYVYLMHNGNTVFSMYSYETKGKSDTSSNHAVLKLAKGDEVWLRMGNGALHGDHQRFSTFAGFLLFETK
B2: CTRP3 (C1q/TNF-related protein 3), C-terminal FLAG- or HA-tagged, full length (natural protein, UniProt Q9ES30 23-246, looked up)
chain: B1 chain with A17C, A20C, A21C
modifications: carbohydrate moieties (type and sites not determined; none N-linked)
B3: CTRP1ΔCys (C73A/C76A/C77A/C141A), C-terminal FLAG-tagged (natural protein, mouse, UniProt Q9QXP7 26-281, looked up)
chain: LVPRVQEEQQEWEETEELPSPLDPVTRPEETREKYSPRQGEDLPTSRAYRAADPSTPVYQTIPPPQINITILKGEKGDRGDRGLQGKYGKIGSTGPRGHVGPKGQKGSIGAPGNHAKSQYAAFSVGRKKALHSNDYFQPVVFDTEFVNLYKHFNMFTGKFYCYVPGIYFFSLNVHTWNQKETYLHIMKNEEEVVILYAQVSDRSIMQSQSLMMELREEDEVWVRLFKGERENAIFSDEFDTYITFSGYLVKPASEP
B4: CTRP1 (C1q/TNF-related protein 1), C-terminal FLAG- or HA-tagged, full length (natural protein, mouse, UniProt Q9QXP7 26-281, looked up)
chain: B3 chain with A48C, A51C, A52C, A116C
modifications: N-linked glycans (site not given)
B5: CTRP5ΔCys (C28A/C98A), C-terminal FLAG-tagged (natural protein, UniProt Q8K479 16-243, looked up)
chain: SPPLDDNKIPSLAPGQPGLPGTPGHHGSQGLPGRDGRDGRDGAPGAPGEKGEGGRPGLPGPRGEPGPRGEAGPMGAIGPAGEASVPPRSAFSAKRSESRVPPPADTPLPFDRVLLNEQGHYDPTTGKFTCQVPGVYYFAVHATVYRASLQFDLVKNGQSIASFFQYFGGWPKPASLSGGAMVRLEPEDQVWVQVGVGDYIGIYASIKTDSTFSGFLVYSDWHSSPVFA
B6: CTRP5 (C1q/TNF-related protein 5), C-terminal FLAG- or HA-tagged, full length (natural protein, UniProt Q8K479 16-243, looked up)
chain: B5 chain with A13C, A83C
modifications: carbohydrate moieties (type and sites not determined; none N-linked)
B7: CTRP10 (C1q/TNF-related protein 10), C-terminal FLAG- or HA-tagged, full length (natural protein, mouse, UniProt Q8CFR0 22-287, looked up)
chain: HYEMLGTCRMICDPYSVAPAGGPAGAKAPPPGPSTAALEVMQDLSANPPPPFIQGPKGDPGRPGKPGPRGPPGEPGPPGPRGPPGEKGDSGRPGLPGLQLTTSAAGGVGVVSGGTGGGGDTEGEVTSALSAAFSGPKIAFYVGLKSPHEGYEVLKFDDVVTNLGNHYDPTTGKFSCQVRGIYFFTYHILMRGGDGTSMWADLCKNGQVRASAIAQDADQNYDYASNSVVLHLDSGDEVYVKLDGGKAHGGNNNKYSTFSGFLLYPD
modifications: carbohydrate moieties (type and sites not determined; none N-linked)
B8: CTRP10ΔCys (C29A/C33A), C-terminal FLAG-tagged (natural protein, mouse, UniProt Q8CFR0 22-287, looked up)
chain: B7 chain with C8A, C12A
B9: adiponectin, C-terminal FLAG- or HA-tagged, full length (natural protein, UniProt Q60994 18-247, looked up)
chain: EDDVTTTEELAPALVPPPKGTCAGWMAGIPGHPGHNGTPGRDGRDGTPGEKGEKGDAGLLGPKGETGDVGMTGAEGPRGFPGTPGRKGEPGEAAYVYRSAFSVGLETRVTVPNVPIRFTKIFYNQQNHYDGSTGKFYCNIPGLYYFSYHITVYMKDVKVSLFKKDKAVLFTYDQYQEKNVDQASGSVLLHLEVGDQVWLQVYGDGDHNGLYADNVNDSTFTGFLLYHDTN
B10: CTRP6 (C1q/TNF-related protein 6), C-terminal FLAG- or HA-tagged, full length (natural protein, UniProt Q6IR41 25-264, looked up)
chain: VPTEETTFGESVASHLPKGCRRCCDPEDLMSSDDTVQAPVSPYVLPEVRPYINITILKGDKGDRGPTGTPGKPGKNGTRGDRGSQGVKGDKGQAGSPGSSCQTHYSAFSVGRKTGLHSSENFLSLLFDRVFVNTDGHFDMATGSFVAPLRGLYFFSLNVHSWNYKETYVHIVHNEQAVVILYAQPSERSIMQSQSVMLPLVPGDRVWVRLFKRERENGIYSDDVDTYITFSGHLIKAEDN
modifications: N-linked glycans (sites not given)
B11: CTRP6ΔCys (C44A/C47A/C48A/C125A), C-terminal FLAG- or HA-tagged (natural protein, UniProt Q6IR41 25-264, looked up)
chain: B10 chain with C20A, C23A, C24A, C101A
B12: serum CTRP5 (natural protein, mouse (endogenous in C57BL/6 serum), UniProt Q8K479 16-243, looked up)
chain: B5 chain with A13C, A83C

Target: the molecule itself
Experiment: SEC

Protein | stoichiometry N
B1 | 3
B2 | 3 and ~6
B3 | 3
B4 | 3
B5 | 3
B6 | 3 and ~6
B7 | 3 and ~6
B8 | 3
B9 | 3 and 6
B10 | ~6 and 3
B11 | 3

Target: the molecule itself
Experiment: SEC
Remark: another data set of the same source

Protein | stoichiometry N
B12 | 3
